Consider 15 molecules from patent publication US20100138945A1 (FEMTA PHARMACEUTICALS, published 2010).

Assay [1] addresses T1, human IL-6 (Interleukin-6) (human, UniProt P05231 30-212).
T1 construct: also called 001 IL-6 antigen
The assay is described as follows: Sapidyne KinExA kinetic exclusion assay on IL-6; Kd Range (95% Confidence Interval) printed: 5.66pM to 3.28pM. (A kinetic exclusion assay measures how much of one partner remains free in solution.)
Target sequence in this assay (P05231 30-212 limits assumed): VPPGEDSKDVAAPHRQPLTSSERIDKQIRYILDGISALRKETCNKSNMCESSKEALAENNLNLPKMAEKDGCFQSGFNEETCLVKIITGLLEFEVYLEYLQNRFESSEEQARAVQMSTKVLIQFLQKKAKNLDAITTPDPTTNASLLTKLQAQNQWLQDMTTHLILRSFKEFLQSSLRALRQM

Assay [2] has as its target T1, human IL-6 (Interleukin-6). The assay is described as follows: Biacore (SPR), antibody captured on anti-human Fc, IL-6 as analyte.
Assay [3] deals with T1, human IL-6 (Interleukin-6). The assay is described as above. The source holds these as a separate data set.
Assay [4] deals with T1, human IL-6 (Interleukin-6). Put plainly: specific activity: affinity ELISA on IL-6 divided by quantitation ELISA, normalized to BA399 = 1. The method, then:
200 μl washing solution (0.05% Tween-20 in PBS) was added and shaken at 200 RPM for 5 min at room temperature. The plates were emptied and residual liquid tapped out on paper towels. 200 μl blocking solution (2% Carnation milk in PBS) was added and shaken at 200 RPM for one hour at room temperature. Plates were emptied and residual liquid tapped out on paper towels. 100 μl of diluted samples for ELISA was used. The samples were shaken at 200 RPM for one hour at room temperature; plates emptied and residual liquid tapped out on paper towels. 200 μl washing solution (0.05% Tween-20 in PBS) was added, shaken at 200 RPM for 5 min at room temperature; plates emptied and residual liquid tapped out on paper towels. This process was repeated three times. 100 μl of 1:2500 dilution of anti-human IgG conjugated with HRP diluted in block solution (2% Carnation milk in PBS) was added for 001 samples. 100 μl of 1:2500 dilution of anti-rabbit IgG conjugated with HRP diluted in block solution (2% Carnation milk in PBS) was added for control antibody. The contents were shaken at 200 RPM for one hour at room temperature, plates emptied and residue liquid tapped out on paper towels. 200 μl washing solution (0.05% Tween-20 in PBS) was added, shaken at 200 RPM for 5 min at room temperature; plates emptied and residual liquid tapped out on paper towels. This process was repeated three times. 100 μl TMB substrate solution was added, and incubated at room temperature. The reaction was stopped with 1 N HCl, and the plate read at 450 nm.
This ELISA was used for determining the expression level of antibodies in cell culture supernatant. […] Covered with plate sealer and incubated at 4° C. overnight. Emptied plate and tapped out residual liquid on paper towels. Added 200 μl washing solution (0.05% Tween-20 in PBS). Shaken at 200 RPM for 5 min at room temperature. Emptied plate and tapped out residual liquid on paper towels. Added 200 μl blocking solution (2% Carnation milk in PBS). Shaken at 200 RPM for one hour at room temperature. Emptied plate and tapped out residual liquid on paper towels. Used 100 μl of diluted sample for ELISA. 20 ng/ml of human IgG and 1:2 dilution thereafter was used for standards.

Read-outs that look alike come from different tables or passages of the source.

The term Kd denotes the equilibrium constant for the complex coming apart. Read a low Kd as tighter binding. “Anti-IL-6 Mab BA003 (CNTO136) (antibody)” registered an equilibrium dissociation constant (Kd) in assay [1] of 4.37 pM.

B1: Anti-IL-6 Ab BA802 (antibody, V domains shown)
VH: QVQLVQSGAEVKKPGASVKVSCKASGFTFSSFAMSWIRQSPSRGLEWLGEISSGGSYTYYPDTVTGRFTISRDNAKNSLYLQMNSLRAEDTAVYYCARGLWGYYALDYWGQG
VL: EIVLTQSPDFQSVTPKEKVTITCSASSSVSYMYWYLQKPGQSPQLLIYDTSNLASGVPSRFSGSGSGTDFTLTISSLQPEDFATYYCQQWSGYPYTFGQG
notes: Humanized monoclonal antibody
The koff is the first-order rate constant of dissociation. Read a high koff as fast dissociation. What is called kon is the second-order rate constant of association. A high value points to faster complex formation. As for B1, in assay [2], binding was put at a Kd of 0.0396 nM, the koff was determined as 5.88e-05 s⁻¹ and the kon is 1.48e+06 M⁻¹ s⁻¹.

B2: Anti-IL-6 Ab BA808 (antibody, V domains shown)
VH: QVQLVQSGAEVKKPGASVKVSCKASGFTFSSFAMSWIRQSPSRGLEWLGEISSGGSYTYYPDTVTGRFTISRDNAKNSLYLQMNSLRAEDTAVYYCARGLWGYYALDYWGQG
VL: EIVLTQSPATLSVSPGERATLSCSASSSVSYMYWYLQKPGQSPQLLIYDTSNLASGIPPRFSGSGYGTDFTLTINNIESEDAAYYFCQQWSGYPYTFGQG
notes: Humanized monoclonal antibody
Regarding B2, in assay [2], the Kd came to 0.0505 nM, the dissociation rate constant (koff) worked out at 6.59e-05 s⁻¹ and the kon is 1.31e+06 M⁻¹ s⁻¹.

B3: Anti-IL-6 Ab BA840 (antibody, V domains shown)
VH: QVQLVQSGAEVKKPGASVKVSCKASGFTFSSFAMSWIRQPPGKGLEWIGEISSGGSYTYYPDTVTGRFTISRDNAKNSLYLQMNSLRAEDTAVYYCARGLWGYYALDYWGQG
VL: EIVLTQSPDFQSVTPKEKVTITCSASSSVSYMYWYLQKPGQSPQLLIYDTSNLASGIPPRFSGSGYGTDFTLTINNIESEDAAYYFCQQWSGYPYTFGQG
notes: Humanized monoclonal antibody
In assay [2], B3 returned a Kd of 0.236 nM, a koff of 0.000237 s⁻¹ and an on-rate constant (kon) of 1.01e+06 M⁻¹ s⁻¹.

B4: Clone BA399-02 (antibody, V domains shown)
VH: QVQLVQSGAEVKKPGASVKVSCKASGFTFSSFSMSWIRQSPSRGLEWLGEISSGGSYTYYPDTKTGRFTISRDNAKNSLYLQMNSLRAEDTAVYYCARGQWGYYALDYWGQG
VL: AIQLTQSPSSLSASVGDRVTITCYASSSVSYMYWYQQKPGQAPRLLIYDTSNLASGIPPRFSGSGYGTDFTLTINNIESEDAAYYFCQQWSGYPYTFGQG
notes: also called BA399-2; BA399 clone #2
In assay [3], B4 had a Ka of 8.14e+13 M⁻¹, a Kd of 0.0123 pM, an off-rate constant (koff) of 9.11e-09 s⁻¹ and a kon of 742000 M⁻¹ s⁻¹.

B5: Clone BA399-09 (antibody, V domains shown)
VH: QVQLVQSGAEVKKPGASVKVSCKASGFTFSSFSMSWIRQSPSRGLEWLGEISSGGSYHYYPDTVTGRFTISRDNAKNSLYLQMNSLRAEDTAVYYCARGQWGYYALDYWGQG
VL: AIQLTQSPSSLSASVGDRVTITCYASSSVSYMYWYQQKPGQAPRLLIYDTLNLASGIPPRFSGSGYGTDFTLTINNIESEDAAYYFCQQWSGYPYTFGQG
notes: also called BA399-9; BA399 clone #9
In the case of B5, in assay [3], the Ka stood at 1.28e+13 M⁻¹, the Kd came to 0.0783 pM, the koff came out at 5.07e-08 s⁻¹ and the kon was determined as 648000 M⁻¹ s⁻¹.

B6: BA399_CPS_10 (antibody, V domains shown)
VH: QVQLVQSGAEVKKPGASVKVSCKASHFTFSSFSMSWIRQSPSRGLEWLGEISSGGSYHYYPDTVTGRFTISRDNAKNSLYLQMNSLRAEDTAVYYCARGQWGYYALDYWGQG
VL: AIQLTQSPSSLSASVGDRVTITCYASSSVSYMYWYQQKPGQAPRLLIYDTLNLASGIPPRFSGSGYGTDFTLTINNIESEDAAYYFCQQWSGYPYTFGQG
notes: also called Clone BA399-10; BA399_10
With B6, in assay [3], the Ka stood at 3.52e+12 M⁻¹, the Kd was found to be 0.284 pM, the off-rate constant (koff) stood at 1.82e-07 s⁻¹ and the kon turned out to be 643000 M⁻¹ s⁻¹.

B7: BA399_CPS_03 (antibody, V domains shown)
VH: QVQLVQSGAEVKKPGASVKVSCKASHFTFSSFAMSWIRQSPSRGLEWLGEISSGGSYHYYPDTVTGRFTISRDNAKNSLYLQMNSLRAEDTAVYYCARGQWGYYALDYWGQG
VL: AIQLTQSPSSLSASVGDRVTITCSASSSVSYMYWYQQKPGQAPRLLIYDTLNLASGIPPRFSGSGYGTDFTLTINNIESEDAAYYFCQQWSGYPYTFGQG
notes: also called Clone BA399-03; BA399_03
In the case of B7, the binding result in assay [4] is recorded as “binds”.

B8: BA399_CPS_04 (antibody, V domains shown)
VH: QVQLVQSGAEVKKPGASVKVSCKASGFTFSSFSMSWIRQSPSRGLEWLGEISSGGSYTYYPDTVTGRFTISRDNAKNSLYLQMNSLRAEDTAVYYCARGQWGYYALDYWGQG
VL: AIQLTQSPSSLSASVGDRVTITCSASSSVSYMYWYQQKPGQAPRLLIYDTSNLASGIPPRFSGSGYGTDFTLTINNIESEDAAYYFCQDWSGYPYTFGQG
notes: also called Clone BA399-04; BA399_04
With B8, in assay [4], the binding result is “binds”.

B9: BA399_CPS_01 (antibody, V domains shown)
VH: QVQLVQSGAEVKKPGASVKVSCKASGFTFSSFAMSWIRQSPSRGLEWLGEISSGGSYTYYPDTVTGRFTISRDNAKNSLYLQMNSLRAEDTAVYYCARGQWGYYALDYWGQG
VL: AIQLTQSPSSLSASVGDRVTITCSASSSVSYMYWYQQKPGQAPRLLIYDTSNLASGIPPRFSGSGYGTDFTLTINNIESEDAAYYFCQDWSGYPYTFGQG
notes: also called Clone BA399-01; BA399_01
Take B9: the binding result in assay [4] is “binds”.

B10: BA399_CPS_06 (antibody, V domains shown)
VH: QVQLVQSGAEVKKPGASVKVSCKASGFTFSSFSMSWIRQSPSRGLEWLGEISSGGSYHYYPDTVTGRFTISRDNAKNSLYLQMNSLRAEDTAVYYCARGQWGYYALDYWGQG
VL: AIQLTQSPSSLSASVGDRVTITCYASSSVSYMYWYQQKPGQAPRLLIYDTLNLASGIPPRFSGSGYGTDFTLTINNIESEDAAYYFCQDWSGYPYTFGQG
notes: also called Clone BA399-06; BA399_06
Consider B10, for which the binding result in assay [4] is given as “binds”.

B11: Anti-IL-6 Ab BA890 (antibody, V domains shown)
VH: QVQLVQSGAEVKKPGASVKVSCKASGFTFSSFAMSWIRQPPGKGLEWIGEISSGGSYTYYPDTVTGRFTISRDNAKNSLYLQMNSLRAEDTAVYYCARGLWGYYALDYWGQG
VL: AIQLTQSPSSLSASVGDRVTITCSASSSVSYMYWYQQKPGQAPRLLIYDTSNLASGIPPRFSGSGYGTDFTLTINNIESEDAAYYFCQQWSGYPYTFGQG
notes: Humanized monoclonal antibody
In assay [2], B11 displayed a Kd of 0.0865 nM, a koff of 6.44e-05 s⁻¹ and an on-rate (kon) of 745000 M⁻¹ s⁻¹.

B12: Clone BA399-05 (antibody, V domains shown)
VH: QVQLVQSGAEVKKPGASVKVSCKASGFTFSSFAMSWIRQSPSRGLEWLGEISSGGSYTYYPDTKTGRFTISRDNAKNSLYLQMNSLRAEDTAVYYCARGQWGYYALDYWGQG
VL: AIQLTQSPSSLSASVGDRVTITCYASSSVSYMYWYQQKPGQAPRLLIYDTSNLASGIPPRFSGSGYGTDFTLTINNIESEDAAYYFCQDWSGYPYTFGQG
notes: also called BA399-5
In assay [3], B12 registered a Ka of 3.52e+10 M⁻¹, a dissociation constant (Kd) of 28.4 pM, a koff of 2.86e-05 s⁻¹ and a kon of 1.01e+06 M⁻¹ s⁻¹.

B13: Anti-IL-6 Ab BA848 (antibody, V domains shown)
VH: EVQLVQSGAEVKKPGASVKVSCKASGFTFSSFAMSWVRQAPGQGLEWMGEISSGGSYTYYPDTVTGRFTISRDNAKNSLYLQMNSLRAEDTAVYYCARGLWGYYALDYWGQG
VL: AIQLTQSPSSLSASVGDRVTITCSASSSVSYMYWYQQKPGQAPRLLIYDTSNLASGIPPRFSGSGYGTDFTLTINNIESEDAAYYFCQQWSGYPYTFGQG
notes: Humanized monoclonal antibody
In assay [2], B13 had a dissociation constant Kd of 0.127 nM, a koff of 0.000158 s⁻¹ and a kon of 1.25e+06 M⁻¹ s⁻¹.

B14: Anti-IL-6 Ab BA939 (antibody, V domains shown)
VH: QVQLVQSGAEVKKPGASVKVSCKASGFTFSSFAMSWVRQAPGQGLEWMGEISSGGSYTYYPDTVTGRFTISRDNAKNSLYLQMNSLRAEDTAVYYCARGLWGYYALDYWGQG
VL: DIQMTQSPSSLSASVGDRVTITCSASSSVSYMYWYQQKPGQAPRLLIYDTSNLASGIPPRFSGSGYGTDFTLTINNIESEDAAYYFCQQWSGYPYTFGQG
notes: Humanized monoclonal antibody
Regarding B14, in assay [2], the Kd turned out to be 0.04 nM, the dissociation rate constant (koff) came to 5.76e-05 s⁻¹ and the association rate constant (kon) stood at 1.44e+06 M⁻¹ s⁻¹.
